Data on 1 substance can be found in article PMC9275233, “Functional Characterization of a Regiospecific Sugar-O-Methyltransferase from Nocardia” (Applied and Environmental Microbiology, 2022).

Data set [1] concerns C[C@@H]1O[C@@H](Oc2ccc(O)c3c2C(=O)c2ccccc2C3=O)[C@H](O)[C@H](O)[C@H]1O. Briefly: HPLC methylation assay, nonlinear Michaelis-Menten fit. As to conditions: 2 mM SAM (saturating), 2 mM MgCl2, 50 mM Tris-HCl pH 7.5, QR 5 to 200 μM. The class given is biochemical, Nocardia sp. CS682.
In data set [2] the test system is C[S+](CC[C@H](N)C(=O)O)C[C@H]1O[C@@H](n2cnc3c(N)ncnc32)[C@H](O)[C@@H]1O. The data set is described as above. The data set is classed as biochemical, Nocardia sp. CS682. As to conditions: 100 μM QR (near saturation), 2 mM MgCl2, 50 mM Tris-HCl pH 7.5, SAM 5 to 200 μM.

ThnM1 (Nocardia sp. CS682): the values for the Km in data set [1] and in data set [2] were 11.70 ± 1.97 µM and 32.7 ± 7.06 µM, respectively.
